Data: the RNAGym collection of RNA variant scans (doi:10.1093/molbev/msab373)

B1: Azoarcus group I ribozyme (parent)
chain: GUGCCUUGCGCCGGGAAACCACGCAAGGGAUGGUGUCAAAUUCGGCGAAACCUAAGCGCCCGCCCGGGCGUAUGGCAACGCCGAGCCAAGCUUCGGCGCCUGCGCCGAUGAAGGUGUAGAGACUAGACGGCACCCACCUAAGGCAAACGCUAUGGUGAAGGCAUAGUCCAGGGAGUGGCGAAAGUCACACAAACCGG

Variants of: B1
Assay: reverse-splicing fitness (ratio to wild type); higher = more active; in vitro selection; Mg2+ level not given
In short: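 An in vitro group I ribozyme library with randomized positions was T7-transcribed and gel-purified. In triplicate, 10 pmol RNA in EPPS pH 7.5 was reacted with 50 pmoles of a 30-nt RNA substrate for 1 h at 37 °C across several added MgCl2 levels (1–48 mM), then stopped with EDTA. Products were reverse transcribed from a substrate-complementary primer, PCR-amplified and sequenced (HiSeq 4000). Fitness is a variant's read proportion after selection over that before, normalised to wild type.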

Variant | reverse-splicing fitness
GUGCCUUGCGCCGGGAAACCACGCAAGGGAUGGUGUCAAAUUCGGCGAAACCUAAGCGCCCGCCCGGGCGUAUGGCAACGCAGAGCCAAGCUUCGGCGCCUGCGCCGAUGCAGGUGUAGGGACUAGACGGCACCCACCUAAGGCGAACGAUAUGGUGAAGGCAUAGUCCAGGGAGCGGCGAAAGUCACACAAACCGG [C82A A111C A120G A145G C150A U176C] | 0.0185
GUGCCUUGCGCCGGGAAACCACGCAAGGGAUGGUGUCAAAUUCGGCGAAACCUAAGCGCCCGCCCGGGCGUAUGGCAACGCAGAGCCAAGCUUCGGCGCCUGCGCCGAUGCAGGUGUAGGGACUAGACGGCACCCACCUAAGGCGAACGAUAUGGUGAAGGCAUAGUCCAGGGAGGGGCGAAAGUCACACAAACCGG [C82A A111C A120G A145G C150A U176G] | 0.00772
GUGCCUUGCGCCGGGAAACCACGCAAGGGAUGGUGUCAAAUUCGGCGAAACCUAAGCGCCCGCCCGGGCGUAUGGCAACGCAGAGCCAAGCUUCGGCGCCUGCGCCGAUGCAGGUGUAGGGACUAGACGGCACCCACCUAAGGCGAACGAUAUGGUGAAGGCAUAGUCCAGGGAGAGGCGAAAGUCACACAAACCGG [C82A A111C A120G A145G C150A U176A] | 0.00969
GUGCCUUGCGCCGGGAAACCACGCAAGGGAUGGUGUCAAAUUCGGCGAAACCUAAGCGCCCGCCCGGGCGUAUGGCAACGCAGAGCCAAGCUUCGGCGCCUGCGCCGAUGCAGGUGUAGGGACUAGACGGCACCCACCUAAGGCGAACGGUAUGGUGAAGGCAUAGUCGAGGGAGAGGCGAAAGUCACACAAACCGG [C82A A111C A120G A145G C150G C169G U176A] | 0.00968
GUGCCUUGCGCCGGGAAACCACGCAAGGGAUGGUGUCAAAUUCGGCGAAACCUAAGCGCCCGCCCGGGCGUAUGGCAACGCAGAGCCAAGCUUCGGCGCCUGCGCCGAUGCAGGUGUAGGGACUAGACGGCACCCACCUAAGGCGAACGGUAUGGUGAAGGCAUAGUCGAGGGAGGGGCGAAAGUCACACAAACCGG [C82A A111C A120G A145G C150G C169G U176G] | 0.00603
GUGCCUUGCGCCGGGAAACCACGCAAGGGAUGGUGUCAAAUUCGGCGAAACCUAAGCGCCCGCCCGGGCGUAUGGCAACGCAGAGCCAAGCUUCGGCGCCUGCGCCGAUGCAGGUGUAGGGACUAGACGGCACCCACCUAAGGCGAACGGUAUGGUGAAGGCAUAGUCGAGGGAGCGGCGAAAGUCACACAAACCGG [C82A A111C A120G A145G C150G C169G U176C] | 0.0118
GUGCCUUGCGCCGGGAAACCACGCAAGGGAUGGUGUCAAAUUCGGCGAAACCUAAGCGCCCGCCCGGGCGUAUGGCAACGCAGAGCCAAGCUUCGGCGCCUGCGCCGAUGCAGGUGUAGGGACUAGACGGCACCCACCUAAGGCGAACGGUAUGGUGAAGGCAUAGUCAAGGGAGGGGCGAAAGUCACACAAACCGG [C82A A111C A120G A145G C150G C169A U176G] | 0.00771
GUGCCUUGCGCCGGGAAACCACGCAAGGGAUGGUGUCAAAUUCGGCGAAACCUAAGCGCCCGCCCGGGCGUAUGGCAACGCAGAGCCAAGCUUCGGCGCCUGCGCCGAUGCAGGUGUAGGGACUAGACGGCACCCACCUAAGGCGAACGGUAUGGUGAAGGCAUAGUCAAGGGAGCGGCGAAAGUCACACAAACCGG [C82A A111C A120G A145G C150G C169A U176C] | 0.0113
GUGCCUUGCGCCGGGAAACCACGCAAGGGAUGGUGUCAAAUUCGGCGAAACCUAAGCGCCCGCCCGGGCGUAUGGCAACGCAGAGCCAAGCUUCGGCGCCUGCGCCGAUGCAGGUGUAGGGACUAGACGGCACCCACCUAAGGCGAACGGUAUGGUGAAGGCAUAGUCAAGGGAGAGGCGAAAGUCACACAAACCGG [C82A A111C A120G A145G C150G C169A U176A] | 0.0133
GUGCCUUGCGCCGGGAAACCACGCAAGGGAUGGUGUCAAAUUCGGCGAAACCUAAGCGCCCGCCCGGGCGUAUGGCAACGCAGAGCCAAGCUUCGGCGCCUGCGCCGAUGCAGGUGUAGGGACUAGACGGCACCCACCUAAGGCGAACGGUAUGGUGAAGGCAUAGUCGAGGGAGUGGCGAAAGUCACACAAACCGG [C82A A111C A120G A145G C150G C169G] | 0.00706
GUGCCUUGCGCCGGGAAACCACGCAAGGGAUGGUGUCAAAUUCGGCGAAACCUAAGCGCCCGCCCGGGCGUAUGGCAACGCAGAGCCAAGCUUCGGCGCCUGCGCCGAUGCAGGUGUAGGGACUAGACGGCACCCACCUAAGGCGAACGGUAUGGUGAAGGCAUAGUCAAGGGAGUGGCGAAAGUCACACAAACCGG [C82A A111C A120G A145G C150G C169A] | 0.00875
GUGCCUUGCGCCGGGAAACCACGCAAGGGAUGGUGUCAAAUUCGGCGAAACCUAAGCGCCCGCCCGGGCGUAUGGCAACGCAGAGCCAAGCUUCGGCGCCUGCGCCGAUGCAGGUGUAGGGACUAGACGGCACCCACCUAAGGCGAACGGUAUGGUGAAGGCAUAGUCCAGGGAGUGGCGAAAGUCACACAAACCGG [C82A A111C A120G A145G C150G] | 0.00731
GUGCCUUGCGCCGGGAAACCACGCAAGGGAUGGUGUCAAAUUCGGCGAAACCUAAGCGCCCGCCCGGGCGUAUGGCAACGCAGAGCCAAGCUUCGGCGCCUGCGCCGAUGCAGGUGUAGGGACUAGACGGCACCCACCUAAGGCGAACGAUAUGGUGAAGGCAUAGUCUAGGGAGAGGCGAAAGUCACACAAACCGG [C82A A111C A120G A145G C150A C169U U176A] | 0.0154
GUGCCUUGCGCCGGGAAACCACGCAAGGGAUGGUGUCAAAUUCGGCGAAACCUAAGCGCCCGCCCGGGCGUAUGGCAACGCAGAGCCAAGCUUCGGCGCCUGCGCCGAUGCAGGUGUAGGGACUAGACGGCACCCACCUAAGGCGAACGAUAUGGUGAAGGCAUAGUCUAGGGAGCGGCGAAAGUCACACAAACCGG [C82A A111C A120G A145G C150A C169U U176C] | 0.0139
GUGCCUUGCGCCGGGAAACCACGCAAGGGAUGGUGUCAAAUUCGGCGAAACCUAAGCGCCCGCCCGGGCGUAUGGCAACGCAGAGCCAAGCUUCGGCGCCUGCGCCGAUGCAGGUGUAGGGACUAGACGGCACCCACCUAAGGCGAACGAUAUGGUGAAGGCAUAGUCUAGGGAGGGGCGAAAGUCACACAAACCGG [C82A A111C A120G A145G C150A C169U U176G] | 0.00632
